{
  "source": "patent US7053264B2",
  "about": "“Nuclear reprogramming using IWSI and related chromatin remodeling ATPases” (Sangamo Biosciences, Inc., priority 2000, dated 2006)",
  "molecules": {"B1": {"name": "rISWI: recombinant Drosophila ISWI produced in E. coli (protein, UniProt Q24368 1-1027, looked up)", "Chromatin-remodeling complex …": "MSKTDTAAVEATEENSNETTSDAATSSSGEKEAEFDNKIEADRSRRFDFLLKQTEIFTHFMTNSAKSPTKPKGRPKKIKDKDKEKDVADHRHRKTEQEEDEELLAEDSATKEIFRFDASPAYIKSGEMRDYQIRGLNWMISLYENGINGILADEMGLGKTLQTISLLGYLKHFKNQAGPHIVIVPKSTLQNWVNEFKKWCPSLRAVCLIGDQDTRNTFIRDVLMPGEWDVCVTSYEMCIREKSVFKKFNWRYLVIDEAHRIKNEKSKLSEILREFKTANRLLITGTPLQNNLHELWALLNFLLPDVFNSSEDFDEWFNTNTCLGDDALITRLHAVLKPFLLRRLKAEVEKRLKPKKEMKIFVGLSKMQRDWYTKVLLKDIDVVNGAGKVEKMRLQNILMQLRKCTNHPYLFDGAEPGPPYTTDTHLVYNSGKMAILDKLLPKLQEQGSRVLIFSQMTRMLDILEDYCHWRNYNYCRLDGQTPHEDRNRQIQEFNMDNSAKFLFMLSTRAGGLGINLATADVVIIYDSDWNPQMDLQAMDRAHRIGQKKQVRVFRLITESTVEEKIVERAEVKLRLDKMVIQGGRLVDNRSNQLNKDEMLNIIRFGANQVFSSKETDITDEDIDVILERGEAKTAEQKAALDSLGESSLRTFTMDTNGEAGTSSVYQFEGEDWREKQKLNALGNWIEPPKRERKANYAVDAYFREALRVSEPKAPKAPRPPKQPIVQDFQFFPPRLFELLDQEIYYFRKTVGYKVPKNTELGSDATKVQREEQRKIDEAEPLTEEEIQEKENLLSQGFTAWTKRDFNQFIKANEKYGRDDIDNIAKDVEGKTPEEVIEYNAVFWERCTELQDIERIMGQIERGEGKIQRRLSIKKALDQKMSRYRAPFHQLRLQYGNNKGKNYTEIEDRFLVCMLHKLGFDKENVYEELRAAIRASPQFRFDWFIKSRTALELQRRCNTLITLIERENIELEEKERAEKKKKAPKGSVSAGSGSASSNTPAPAPQPKASQKRKSEVVATSSNSKKKKK"}, "B2": {"name": "mutant of rISWI: rISWI in which lysine 159 in the adenine nucleotide binding domain was replaced with arginine; negative control (protein, UniProt Q24368 1-1027, looked up, variant K159R)", "Chromatin-remodeling complex …": "MSKTDTAAVEATEENSNETTSDAATSSSGEKEAEFDNKIEADRSRRFDFLLKQTEIFTHFMTNSAKSPTKPKGRPKKIKDKDKEKDVADHRHRKTEQEEDEELLAEDSATKEIFRFDASPAYIKSGEMRDYQIRGLNWMISLYENGINGILADEMGLGRTLQTISLLGYLKHFKNQAGPHIVIVPKSTLQNWVNEFKKWCPSLRAVCLIGDQDTRNTFIRDVLMPGEWDVCVTSYEMCIREKSVFKKFNWRYLVIDEAHRIKNEKSKLSEILREFKTANRLLITGTPLQNNLHELWALLNFLLPDVFNSSEDFDEWFNTNTCLGDDALITRLHAVLKPFLLRRLKAEVEKRLKPKKEMKIFVGLSKMQRDWYTKVLLKDIDVVNGAGKVEKMRLQNILMQLRKCTNHPYLFDGAEPGPPYTTDTHLVYNSGKMAILDKLLPKLQEQGSRVLIFSQMTRMLDILEDYCHWRNYNYCRLDGQTPHEDRNRQIQEFNMDNSAKFLFMLSTRAGGLGINLATADVVIIYDSDWNPQMDLQAMDRAHRIGQKKQVRVFRLITESTVEEKIVERAEVKLRLDKMVIQGGRLVDNRSNQLNKDEMLNIIRFGANQVFSSKETDITDEDIDVILERGEAKTAEQKAALDSLGESSLRTFTMDTNGEAGTSSVYQFEGEDWREKQKLNALGNWIEPPKRERKANYAVDAYFREALRVSEPKAPKAPRPPKQPIVQDFQFFPPRLFELLDQEIYYFRKTVGYKVPKNTELGSDATKVQREEQRKIDEAEPLTEEEIQEKENLLSQGFTAWTKRDFNQFIKANEKYGRDDIDNIAKDVEGKTPEEVIEYNAVFWERCTELQDIERIMGQIERGEGKIQRRLSIKKALDQKMSRYRAPFHQLRLQYGNNKGKNYTEIEDRFLVCMLHKLGFDKENVYEELRAAIRASPQFRFDWFIKSRTALELQRRCNTLITLIERENIELEEKERAEKKKKAPKGSVSAGSGSASSNTPAPAPQPKASQKRKSEVVATSSNSKKKKK"}},
  "key": {"[1]": {"test_system": "nuclei of Xenopus XTC-2 cells", "assay": "Biochemical complementation assay: release of TBP from nuclei by purified proteins combined with SP Sepharose flow through (FT)", "details": "for reconstitution of release of TBP from nuclei: combined with SP Sepharose FT in the presence of ERS, FIG. 4D", "procedure": "(§1) “Extract” refers to unfractionated egg extract. […] The gel was stained with Coomassie Blue. FIG. 4C depicts ATPase activity of ISWI-D and rISWI. ATPase activity was determined in the presence of buffer (−), DNA (D), or nucleosomes (N). The arrowhead indicates the free phosphate generated by ATP hydrolysis. FIG. 4D depicts biochemical complementation assays for activities capable of removing TBP from the nucleus. Egg extract (Ext), SP Sepharose flow through (FT), and FT complemented with various purified proteins at indicated concentrations were compared for remodeling activity by monitoring residual TBP in the nuclear pellet after incubation of nuclei in an egg extract. All lanes included ERS except lanes 7 and 8, which contained apyrase. Np indicates nucleoplasmin.\nThe ISWI-D complex was purified from Xenopus egg extract (FIG. 4A), and shown to contain two subunits: p195 and ISWI (FIG. 4B). For the purification, egg extract was fractionated through BioRex 70 (Bio-Rad, Hercules, Calif.) and MonoQ (Amersham Pharmacia, Piscataway, N.J.) essentially as described in Wade et al. (1998) Curr Biol 8:843–846. The MonoQ ISWI-D peak (eluting at approximately 0.45 M NaCl) was further purified by gradient elution on MonoS (linear gradient from 0.1 to 0.5 M NaCl in Buffer A) as described in Wade et al., supra. ISWI-D was eluted at approximately 0.3 M NaCl. Drosophila rISWI was produced in E. coli and purified by IMPACT T7 system (New England Biolabs, Beverly, Mass.) and Superdex 200 gel filtration column (Amersham Pharmacia). ATPase activity was tested as described in Corona et al, supra.\nEither ISWI-D complex or rISWI were essential for release of TBP from nuclei. The endogenous activity in the extract responsible for the release of TBP from chromatin was depleted by applying the extract to SP Sepharose, and restored by combining the SP Sepharaose flow through (FT) and the 0.5 M NaCl eluate from BioRex 70 that contained ISWI (FIG. 4D, lanes 2 and 3). FT was prepared from SP Sepharose (Amersham Pharmacia) by equilibrating the resin with Buffer A and briefly centrifuging to deplete the buffer. The egg extract was incubated with the equilibrated resin for 30 minutes in a cold room and briefly centrifuged to collect FT. […] Release of TBP from nuclei by ISWI plus FT was also confirmed by immunofluorescence.\nThree other proteins known to modify protein-DNA interactions (TAF172, the Mi-2 complex and nucleoplasmin) were also tested in this biochemical complementation assay. Recombinant human TAF172 was prepared in a baculovirus expression system (see Chicca et al. (1998) Mol Cell Biol 18:1701–1710), while the Mi-2 complex and nucleoplasmin were isolated from Xenopus egg extracts. TAF 172, the human homologue of yeast Mot1, also belongs to the SWI2/SNF2 superfamily and removes TBP from DNA in vitro (Auble et al. (1994) Genes Dev 8:1920–1934; Chicca et al., supra). The Xenopus Mi-2 complex contains Mi-2, also a member of the SWI2/SNF2 superfamily, in addition to five other subunits and remodels chromatin (Wade et al (1998) Curr Biol 8:843–846; Guschin et al. (2000) Biochem 39:5238–5245). Nucleoplasmin remodels sperm chromatin upon fertilization (Dimitrov et al., supra; Philpott et al. (2000) Cell 69:759767). […] Higher concentrations of these proteins were also tested, with similar results."}, "[2]": {"test_system": "nuclei of Xenopus XTC-2 cells", "assay": "Nuclear remodeling assay: permeabilized somatic nuclei incubated in Xenopus egg S phase extract, TBP in nuclear pellet by immunoblot", "assay_type": "biochemical", "details": "agent added to nuclear remodeling reaction in egg extract; immunoblot FIG. 1A", "quoted_text": "To simplify nuclear remodeling assays by eliminating nuclear transport steps, both the plasma membrane and nuclear envelope of Xenopus XTC-2 cells (henceforth called nuclei) were permeabilized with a detergent, essentially as described in Adam et al. (1992) Methods Enzymol. […] Xenopus XTC-2 cells were permeabilized with 30 μg/ml digitonin for three minutes using the LL-Bsa method (Gurdon (1976) J. Embryol. Exp. Morphol. 36:5235407) replacing lysolecithin (which caused tight aggregation of nuclei) by digitonin. […] The permeability of the nuclear envelope was monitored by the passive entry of fluorescence-labeled immunoglobulin G (150k Da) into the nuclei (Newmeyer et al. (1986) J Cell Biol 103:2091–2102). […]\nAfter incubation for two hours at room temperature 100 μl of Buffer B (10 mM HEPES pH 7.8, 75 mM KCl, 4 mM magnesium chloride, 250 mM sucrose, 0.5 mM spermidine trihydrochloride, 0.15 mM spermine tetrahydrochloride, 1 mM dithiothreitol, 10 mM β-glycerophosphate, 1 μg/ml leupeptin, 2 μg/ml pepstatin A, 100 μM 4-(2-aminoethyl)-benzenesulfonyl fluoride, AEBSF) was added and the reaction mix was centrifuged at 15,000× g for 10 min. The pellet, called remodeled nuclei, was analyzed by immunoblotting using SuperSignal West Dura (Pierce, Rockford, Ill.) as a substrate of horseradish peroxidase."}, "nuclear matrix": {"test_system": "nuclear matrix", "assay": "Release of TBP from purified nuclear matrix, immunoblot", "assay_type": "biochemical, Xenopus", "details": "presence of ERS; ISWI-D or rISWI added to the FT fraction; FIG. 5", "procedure": "Analysis of histone H2B is shown as a control. Nuclear matrix was prepared as described in the Examples, and nuclear matrix proteins were separated by gel electorphoresis. Each lane contained matrix from 4×10^5 nuclei. The gel was blotted, and the blots were analyzed with antibodies to TBP or H2B. Nuclei were incubated with egg extract (lanes 2 and 3) or various combinations of proteins and protein fractions (lanes 4–8) prior to preparation of nuclear matrix. Analysis of a preparation of nuclear matrix from nuclei that were not incubated with extract or proteins is shown in lane 1. Presence or absence of an ERS in the incubation is indicated by “+” and “−,” respectively.\nTo understand the mechanism of the release of TBP further, nuclear matrix was prepared from the nuclei that had not been incubated in the egg extract, by using 0.5% Triton X-100, DNase I, 250 mM ammonium sulfate, and 2M NaCl. The nuclear matrix was prepared essentially as described D. L. Spector and D. Goldman, L. L. A, in Cells, A Laboratory Manual. (Cold Spring Harbor Laboratory Press, New York, 1997) pp. 44.1–44.8. […]\nThe purified nuclear matrix was incubated in the egg extract and its composition was analyzed by immunoblotting."}, "nucleosomes": {"test_system": "nucleosomes", "assay": "ATPase activity in the presence of buffer, DNA or nucleosomes", "assay_type": "biochemical", "details": "FIG. 4C", "procedure": "as §1\nThe ISWI-D complex was purified from Xenopus egg extract (FIG. 4A), and shown to contain two subunits: p195 and ISWI (FIG. 4B). For the purification, egg extract was fractionated through BioRex 70 (Bio-Rad, Hercules, Calif.) and MonoQ (Amersham Pharmacia, Piscataway, N.J.) essentially as described in Wade et al. (1998) Curr Biol 8:843–846. The MonoQ ISWI-D peak (eluting at approximately 0.45 M NaCl) was further purified by gradient elution on MonoS (linear gradient from 0.1 to 0.5 M NaCl in Buffer A) as described in Wade et al., supra. ISWI-D was eluted at approximately 0.3 M NaCl. […]"}},
  "data": [
    {"molecule": "TAF172: recombinant human TAF172, homologue of yeast Mot1, prepared in a baculovirus expression system", "values": [
      {"measurement": "reconstitution of release of TBP from nuclei", "setting": "[1]", "value": "None of these proteins proved capable of reconstituting TBP removal activity"}
    ]},
    {"molecule": "aphidicholin", "values": [
      {"measurement": "effect on exclusion (loss) of TBP from nuclei in egg extract", "setting": "[2]", "value": "neither aphidicholin nor arabinosylcytosine (both inhibitors of DNA replication) inhibited the loss of TBP"}
    ]},
    {"molecule": "apyrase", "values": [
      {"measurement": "effect on exclusion (loss) of TBP from nuclei in egg extract", "setting": "[2]", "value": "exclusion was inhibited"}
    ]},
    {"molecule": "nucleoplasmin: molecular chaperone isolated from Xenopus egg extracts; remodels sperm chromatin", "values": [
      {"measurement": "reconstitution of release of TBP from nuclei", "setting": "[1]", "value": "None of these proteins proved capable of reconstituting TBP removal activity"}
    ]},
    {"molecule": "B1", "values": [
      {"measurement": "reconstitution of release of TBP from nuclei", "setting": "[1]", "value": "competent to reconstitute release of TBP from nuclei"},
      {"measurement": "release of TBP from nuclei in combination with nucleoplasmin", "setting": "[1]; nucleoplasmin substituted for the FT fraction", "value": "incapable of releasing TBP from nuclei"},
      {"measurement": "release of TBP from nuclei in the absence of FT", "setting": "[1]; without FT fraction", "value": "Neither the ISWI-D complex nor rISWI could release TBP from nuclei"},
      {"measurement": "release of TBP from the nuclear matrix", "setting": "nuclear matrix", "value": "resulted in release of TBP"}
    ]},
    {"molecule": "B2", "values": [
      {"measurement": "reconstitution of release of TBP from nuclei", "setting": "[1]", "value": "not competent to reconstitute release of TBP from nuclei"},
      {"measurement": "nucleosomal ATPase activity", "setting": "nucleosomes", "value": "lacked nucleosomal ATPase activity"}
    ]}
  ]
}
